This note sets out measurements from publication PMC9426481, “Structure and Function of BcpE2, the Most Promiscuous GH3-Family Glucose Scavenging Beta-Glucosidase” (mBio, 2022).

For one series, the target named is T1, BglC (His6-BglC) (Streptomyces scabiei, UniProt C9Z448).
T1 construct: gene SCAB_57721; N-terminal His6 tag kept; plasmid pSAJ022; host E. coli BL21(DE3) Rosetta
As to the kind of experiment: glucose release; substrate inhibition fit. Format: biochemical. The note with it: Ki of substrate inhibition.

The target in a further series is T2, BcpE2 (Streptomyces scabiei, UniProt C9ZDY4).
T2 construct: gene SCAB_64101; BcpE2-His6
As to the kind of experiment: TLC hydrolysis assay with purified enzyme (complete hydrolysis). Format: biochemical.

Substrate in series [1]: OC/C=C/c1ccc(O[C@@H]2O[C@H](CO)[C@@H](O)[C@H](O)[C@H]2O)cc1
As to the kind of experiment: purified protein. Format: biochemical, Streptomyces scabiei.

Substrate in series [2]: COc1cc2ccc(=O)oc2cc1O[C@@H]1O[C@H](CO)[C@@H](O)[C@H](O)[C@H]1O
Nature of the series: purified protein. Format: biochemical, Streptomyces scabiei.

Substrate in series [3]: OC[C@H]1O[C@@H](Oc2ccc(O)cc2)[C@H](O)[C@@H](O)[C@@H]1O
As to the kind of experiment: Hydrolysis kinetics (glucose release, Km) and TLC with purified enzyme. Format: biochemical, Streptomyces scabiei.

Substrate in series [4]: OC[C@H]1O[C@@H](O[C@H]2[C@H](O)[C@@H](CO)OC(O)[C@@H]2O)[C@H](O)[C@@H](O)[C@@H]1O
Described as above. Format: biochemical, Streptomyces scabiei.

Substrate in series [5]: COc1cc(/C=C/CO)ccc1O[C@@H]1O[C@H](CO)[C@@H](O)[C@H](O)[C@H]1O
The series is described as above. Format: biochemical, Streptomyces scabiei.

Substrate in series [6]: OCc1ccccc1O[C@@H]1O[C@H](CO)[C@@H](O)[C@H](O)[C@H]1O
The description is as above. Format: biochemical, Streptomyces scabiei.

Substrate in series [7]: COc1cc(/C=C/CO)cc(OC)c1O[C@@H]1O[C@H](CO)[C@@H](O)[C@H](O)[C@H]1O
Described as above. Format: biochemical, Streptomyces scabiei.

T1 sequence (C9Z448 entry or part of it): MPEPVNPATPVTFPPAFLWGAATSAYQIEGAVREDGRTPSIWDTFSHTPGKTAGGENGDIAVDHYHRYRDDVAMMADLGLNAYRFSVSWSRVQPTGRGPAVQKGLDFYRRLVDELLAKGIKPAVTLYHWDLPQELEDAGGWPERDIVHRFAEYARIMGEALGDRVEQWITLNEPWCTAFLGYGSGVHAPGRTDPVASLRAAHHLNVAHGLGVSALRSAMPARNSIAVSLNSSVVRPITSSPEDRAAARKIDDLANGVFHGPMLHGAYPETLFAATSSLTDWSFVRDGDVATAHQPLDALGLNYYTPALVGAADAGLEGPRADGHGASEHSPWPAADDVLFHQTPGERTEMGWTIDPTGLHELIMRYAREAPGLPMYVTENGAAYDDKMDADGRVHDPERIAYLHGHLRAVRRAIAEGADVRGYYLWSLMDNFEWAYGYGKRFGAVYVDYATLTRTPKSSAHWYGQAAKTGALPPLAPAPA

As to `COc1cc2ccc(=O)oc2cc1O[C@@H]1O[C@H](CO)[C@@H](O)[C@H](O)[C@H]1O` [Scopolin], on BglC (His6-BglC), the Ki entry is reported as “the Ki value for BcpE2 appeared to be lower, indicating a stronger inhibition compared to BglC”.

`CC(C)(C#N)O[C@@H]1O[C@H](CO)[C@@H](O)[C@H](O)[C@H]1O` [Linamarin]: the “TLC hydrolysis assay with purified enzyme (complete hydrolysis)” value at BcpE2 is listed as “Linamarin|Cyanogenic glycosides|+|−|NT|NT|NT|NT”.

Take `OC[C@H]1O[C@@H](Oc2cc3c(O[C@@H]4O[C@H](CO)[C@@H](O)[C@H](O)[C@H]4O)cc(O)cc3[o+]c2-c2ccc(O)c(O)c2)[C@H](O)[C@@H](O)[C@@H]1O` [Cyanin]: at BcpE2, the “TLC hydrolysis assay with purified enzyme (complete hydrolysis)” value is “Cyanin (Cyanidin-3,5-di-O-glucoside)|Antho-cyanosides|+|−|NT|NT|NT|NT”.

B1: BcpE2 (Streptomyces scabiei 87.22) (protein)
chain: MAATPGTRTTPADEAREAAVEKALAALDLDAKARLLSGQDMWTLPALPEIGLASLVMSDGPIGVRGVRWTADDPSVALPSPTALAATWDPGLARRAGVLLAQEARRKGVHVLLAPTVNLHRSPLGGRHFEAYSEDPYLTGEIGSGYVTGVQAGGVGTTVKHFVANDAETDRFTVNNLVSARALRELYLAPFEAIVANAHPWGIMTAYNQVNGSTMTEHRYLVNEVLRGEWGFDGFNVSDWLAARSTTGALTGGLDVAMPGPATVYGEPLAAAVRAGEVTESLLDEAVRRVLRLAARVGILEGAAPAVTELPAPVDGEALAREIARRSFVLVRNEVRDGRAALPLEQGATVALIGAAARDARVLGGGSATVFPARVVSPLDGLTAALPEGAPTYALGADPNEELAVADTGFTLRAVCRDASGTVIGTRSAPNGHIQWMGSDLPDGVTHATLHSVELTGTFTPRETGTHTFGVKGLGAYTLTVDGTTHFDGVRTTDTDDPFVSFFGAPVPLAEVELTEGTPLEVSLTHVVELAADAPITMLAFSLCHQEPQRDPDELIAEAVEAARAADTAVVVVATTERVESEGFDRKDLRLPGRQDDLVRAVAAANPATVVVVNAGSPVELPWREDVAAVLLTWFPGQEGGAALAEVLTGAHEPGGRLPTTWGSLTGAPVTQVTPTAGELVYDEGVFIGYRAWDKEDRTPTYPFGHGLGYTDWTYESLDVTGTTATVRVRNTGTREGRETVQLYLAPTTADENRPTRWLAGFATVEAAPGETAEAVVRLPRRAFEIWDETTGAWVYVTGSYEVAAGRSIADRRTRVTIEAP
notes: BcpE2-His6
Consider B1, for which the Km (usually the substrate concentration at which the rate is half of its maximum) in “purified protein [1]” came to 236 µM; in the series “purified protein [2]”, 356 µM; in [3], 367 ± 80 µM; in series [4], 6557 ± 1410 µM; in series [5], 151 ± 43 µM; in [6] it was 142 ± 30 µM. In series [7], the Km is 608 ± 166 µM. Further, the kcat – broadly, the number of substrate molecules converted per active site and unit of time at saturation – in “purified protein [1]” amounted to 77.2 s⁻¹; in the series “purified protein [2]”, 192 s⁻¹; in [3], 43.2 ± 2.5 s⁻¹; in [4], 8.74 ± 1.02 s⁻¹; in series [5], 83.3 ± 5.9 s⁻¹; in series [6], 53.2 ± 2.37 s⁻¹. In series [7], the kcat stood at 26.4 ± 3.07 s⁻¹. Moreover, the kcat/Km (commonly the turnover number divided by the Michaelis constant) in “purified protein [1]” was 326000 M⁻¹ s⁻¹; in “purified protein [2]”, 540000 M⁻¹ s⁻¹; in series [3], 117000 M⁻¹ s⁻¹; in [4], 1330 M⁻¹ s⁻¹; in [5] it was 551000 M⁻¹ s⁻¹; in [6] it was 376000 M⁻¹ s⁻¹. Besides, the kcat/Km in [7] came to 43500 M⁻¹ s⁻¹.
